The IC50 is the concentration needed to halve the response being measured. One may read the EC50 as the concentration that produces a half-maximal response. The term Kd denotes the concentration at which binding is half-saturated. For orientation: koff means a measure of how fast the partners let go of each other. One may read the kon as a measure of how fast the partners come together.

Changes are numbered by the printed parent chain.

The record followed here is patent US20250277031A1 (BEIJING HANMI PHARMACEUTICAL, published 2025).

For test [1], the target named is T1, recombinant human CD47-Fc protein (ACROBiosystems, catalog number CD7-H52A5) (human, UniProt Q08722 19-139).
T1 construct: bought; not shown: Fc part of a bought fusion protein, not described
T1 sequence (Q08722 19-139 limits assumed): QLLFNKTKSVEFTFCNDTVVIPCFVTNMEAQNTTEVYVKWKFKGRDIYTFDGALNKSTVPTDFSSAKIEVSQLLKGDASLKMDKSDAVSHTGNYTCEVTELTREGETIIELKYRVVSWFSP
The test is described as follows: blocking ELISA: plate coated with human CD47-Fc, 2 nM biotin-labelled SIRPα as the blocked ligand, falling OD450 curve; the sheet labels the half-maximal value EC50. How it is done:
A 96-well high-adsorption ELISA plate was coated with 1 μg/mL of the recombinant human CD47-Fc (ACROBiosystems) at 100 μL per well using carbonate buffer solution, pH=9.6 at 4° C. overnight. The plate was washed 5 times with PBST, and then blocked using PBST with 1% BSA, 300 μL/well, and incubated at 25° C. for 1 hour, and then washed 5 times with PBST. The anti-human CD47 antibody samples were added, 50 μL/well, the biotin-labelled SIRPα (ACROBiosystems) was added at a concentration of 4 nM (a final concentration of 2 nM), 50 μL/well, incubated at 25° C. for 90 minutes, and then washed 5 times with PBST. The Streptavidin-HRP (BD Pharmingen, catalog number 554066) diluted 1:1000 in PBST with 1% BSA was then added, 100 μL per well, and incubated at 25° C. for 1 hour. The plate was washed 5 times with PBST. The colorimetric substrate TMB was added, 100 μL/well, and developed at room temperature for 10 minutes. 1M H₂SO₄ was added, 100 μL/well, to stop the development. The absorbance at 450 nm was read on a microplate reader.

Test [2] concerns the target T2, recombinant human CD86 (ACROBiosystems) (human, UniProt P42081 26-247, limits assumed).
T2 construct: counted here as a B7 family member
T2 sequence (looked up): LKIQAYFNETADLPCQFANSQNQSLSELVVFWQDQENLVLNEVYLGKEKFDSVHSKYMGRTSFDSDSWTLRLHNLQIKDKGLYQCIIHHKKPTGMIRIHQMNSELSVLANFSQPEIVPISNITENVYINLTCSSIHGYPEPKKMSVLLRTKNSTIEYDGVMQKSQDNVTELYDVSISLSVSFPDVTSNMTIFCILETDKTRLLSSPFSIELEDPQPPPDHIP
The test is described as follows: ELISA, coated recombinant protein. How it is done: (§1) Binding specificity of the chimeric anti-human CD47 mAbs was determined by ELISA. A 96-well high-adsorption ELISA plate was coated with 1 μg/mL of the recombinant human PD1, CD28, CTLA4, ICOS, BTLA, CD47, PD-L2, CD80, CD86, B7-H2, CD47, SIRPα and SIRPγ (all from ACROBiosystems), at 100 μL per well using carbonate buffer solution, pH=9.6 at 4° C. overnight. The plate was washed 5 times with PBST, and then blocked using PBST with 1% BSA, 300 μL/well, and incubated at 25° C. for 1 hour, and then washed 5 times with PBST. The chimeric anti-human CD47 mAb samples serially diluted in PBST with 1% BSA and the control CC-90002 and the isotype control were added, 100 μL/well, incubated at 25° C. for 1 hour, and then washed 5 times with PBST. The horseradish peroxidase-labeled anti-human IgG antibody (Chemicon, catalog number AP309P) diluted 1:10000 in PBST with 1% BSA was then added, 100 μL per well, and incubated at 25° C. for 1 hour. The plate was washed 5 times with PBST. The colorimetric substrate TMB was added, 100 μL/well, and developed at room temperature for 10 minutes. 1M H₂SO₄ was added, 100 μL/well, to stop the development. The absorbance at 450 nm was read on a microplate reader.
In general terms: An ELISA detects its analyte on a solid surface through an enzyme-linked reagent.

For test [3], the target named is recombinant human SIRPγ (ACROBiosystems) (human, UniProt Q9P1W8 29-360, limits assumed). Briefly: ELISA, coated recombinant protein. How it is done:
as §1

Test [4] concerns the target T3, recombinant human B7-H2 (ACROBiosystems) (human, UniProt O75144 19-258, limits assumed).
T3 construct: counted here as a B7 family member
T3 sequence (looked up): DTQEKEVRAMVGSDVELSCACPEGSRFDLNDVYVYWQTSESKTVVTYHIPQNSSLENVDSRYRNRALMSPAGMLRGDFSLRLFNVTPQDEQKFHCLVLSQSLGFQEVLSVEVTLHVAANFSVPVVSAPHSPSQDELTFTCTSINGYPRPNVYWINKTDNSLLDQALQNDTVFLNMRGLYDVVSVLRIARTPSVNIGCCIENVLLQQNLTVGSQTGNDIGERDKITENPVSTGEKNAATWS
Briefly: ELISA, coated recombinant protein. How it is done:
as §1

Test [5] has as its target T4, recombinant human CD47 (human, UniProt Q08722 19-139).
T4 construct: also called antigen CD47
Briefly: ELISA, plate coated with 1 µg/mL recombinant human CD47, OD450. The method, then: A 96-well high-adsorption ELISA plate was coated with 1 μg/mL of the recombinant human CD47 (Sino Biological Inc.) at 100 μL per well using carbonate buffer solution, pH=9.6 at 4° C. overnight. The plate was washed 5 times with PBST, and then blocked using PBST with 1% BSA, 300 μL/well, and incubated at 25° C. for 1 hour, and then washed 5 times with PBST. The anti-human CD47 antibody samples and the control CC-90002 (a patent sequence from WO2016109415) were added, 100 μL/well, incubated at 25° C. for 1 hour, and then washed 5 times with PBST. The horseradish peroxidase-labeled anti-mouse IgG antibody (Abcam, catalog number Ab7068) diluted 1:10000 in PBST with 1% BSA was then added, 100 μL per well, and incubated at 25° C. for 1 hour. The plate was washed 5 times with PBST. The colorimetric substrate TMB was added, 100 μL/well, and developed at room temperature for 10 minutes. 1M H₂SO₄ was added, 100 μL/well, to stop the development. The absorbance at 450 nm was read on a microplate reader.

For test [6], the target named is T4, recombinant human CD47. Briefly: SPR, Biacore X100, antibody captured on Protein A chip, CD47 as analyte. From the text:
Biacore X100 instrument (purchased from GE) was used to detect the kinetic constant of the chimeric anti-human CD47 monoclonal antibodies binding to its antigen human CD47. This instrument utilizes optical surface plasmon resonance technology to detect the association and dissociation between the molecules coated on the biochip and the molecules to be tested. The main reagent used is Protein A chip (GE Healthcare, 29-1275-57). The experimental procedure is briefly described as follows: the chimeric anti-human CD47 antibodies were diluted in running buffer (1×HBS-EP+10 mM HEPES, 150 mM NaCl, 3 mM EDTA, 0.05% surfactant P20, pH7.4). During the capture-binding phase, the antibodies at a concentration of 2 μg/mL were injected for 60 seconds at a speed of 10 μL/min. During the binding phase, the antigen CD47 was diluted into multiple concentrations with running buffer, injected for 120 seconds at a speed of 30 μL/min respectively. During the dissociation phase, running buffer was injected for 600 seconds at a speed of 10 μL/min. The regeneration condition is 10 mM glycinate solution, pH1.5. Association kinetic constants and dissociation kinetic constants were analyzed and calculated by Biacore X100 evaluation software. The association kinetic constants, dissociation kinetic constants and dissociation equilibrium constants of the chimeric anti-human CD47 antibodies were shown in Table 7.

T4 sequence (Q08722 19-139 limits assumed): as the sequence (Q08722 19-139 limits assumed) above
recombinant human SIRPγ (ACROBiosystems), sequence (Q9P1W8 29-360 limits assumed): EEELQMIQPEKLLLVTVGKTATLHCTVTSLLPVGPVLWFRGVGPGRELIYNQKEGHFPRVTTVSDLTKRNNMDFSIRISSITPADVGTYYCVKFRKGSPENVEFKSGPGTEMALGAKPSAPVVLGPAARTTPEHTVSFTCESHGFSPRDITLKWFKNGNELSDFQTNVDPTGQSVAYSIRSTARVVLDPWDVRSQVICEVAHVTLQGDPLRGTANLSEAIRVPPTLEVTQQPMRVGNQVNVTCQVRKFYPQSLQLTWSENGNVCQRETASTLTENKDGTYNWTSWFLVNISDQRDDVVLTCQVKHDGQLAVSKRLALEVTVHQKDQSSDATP

B1: chimeric anti-human CD47 monoclonal antibody mAb-18-5 N297A (antibody, human IgG1, kappa, N297A)
heavy: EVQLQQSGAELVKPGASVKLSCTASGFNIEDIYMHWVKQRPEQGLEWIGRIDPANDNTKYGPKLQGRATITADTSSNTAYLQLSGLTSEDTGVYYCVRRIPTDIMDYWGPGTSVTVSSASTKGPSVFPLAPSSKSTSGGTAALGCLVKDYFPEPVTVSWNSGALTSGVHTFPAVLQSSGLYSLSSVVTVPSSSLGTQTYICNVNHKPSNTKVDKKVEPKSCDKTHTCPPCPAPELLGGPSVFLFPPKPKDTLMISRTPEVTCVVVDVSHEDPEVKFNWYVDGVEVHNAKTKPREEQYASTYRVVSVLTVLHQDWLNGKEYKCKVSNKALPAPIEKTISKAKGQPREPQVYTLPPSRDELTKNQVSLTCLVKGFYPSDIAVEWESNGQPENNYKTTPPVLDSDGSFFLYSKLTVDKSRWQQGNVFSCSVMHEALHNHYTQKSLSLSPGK
light: DIVMTQSQKFMSTSVGDRVSITCKASQNVRTSIAWYQQKSGQSPKTLIYLASNRHTGVPDRFTGSGSGTDFTLTISNVQSEDLADYFCLQHWNYPFTFGSGTKLEIKRTVAAPSVFIFPPSDEQLKSGTASVVCLLNNFYPREAKVQWKVDNALQSGNSQESVTEQDSKDSTYSLSSTLTLSKADYEKHKVYACEVTHQGLSSPVTKSFNRGEC
notes: no further substitution applied
B1: the 50% inhibitory concentration (IC50) in test [1] turned out to be 1.75 nM. Further, the binding result in test [2], in test [3] and in test [4] was “no binding” in each case. In test [5], the EC50 was determined as 0.026 nM.

B2: chimeric anti-human CD47 monoclonal antibody mAb-18-10 (antibody, human IgG1, kappa)
heavy: not shown
light: B1 light with S40P
B2: in test [1], the IC50 came to 1.64 nM. Also, the binding result in test [2], in test [3] and in test [4] was “no binding” in each case. Also, the EC50 in test [5] came to 0.026 nM. In test [6], the Kd turned out to be 1.02 nM. In test [6], the koff came out at 0.00101 s⁻¹. For the same molecule, the on-rate constant (kon) in test [6] was found to be 994000 M⁻¹ s⁻¹.
